In PMC11464722 (Nature Communications, 2024):

Experiments:
[1] = target: SNAP-tagged murine µOR on HEK293 cells (murine, UniProt P42866, SNAP-Lumi4-Tb (terbium cryptate) on the SNAP tag); experiment: AlphaScreen or HTRF
[2] = target: human μ-opioid receptor, ssf-tagged, on HEK293 cells (Homo sapiens (Human)., UniProt P35372); experiment: immunostaining of cells or tissue
[3] = target: murine κ-opioid receptor, ssf-tagged, on HEK293 cells (Mus musculus (Mouse)., UniProt P33534); experiment: flow cytometry on cells
Chain of murine κ-opioid receptor, ssf-tagged, on HEK293 cells (P33534 whole entry): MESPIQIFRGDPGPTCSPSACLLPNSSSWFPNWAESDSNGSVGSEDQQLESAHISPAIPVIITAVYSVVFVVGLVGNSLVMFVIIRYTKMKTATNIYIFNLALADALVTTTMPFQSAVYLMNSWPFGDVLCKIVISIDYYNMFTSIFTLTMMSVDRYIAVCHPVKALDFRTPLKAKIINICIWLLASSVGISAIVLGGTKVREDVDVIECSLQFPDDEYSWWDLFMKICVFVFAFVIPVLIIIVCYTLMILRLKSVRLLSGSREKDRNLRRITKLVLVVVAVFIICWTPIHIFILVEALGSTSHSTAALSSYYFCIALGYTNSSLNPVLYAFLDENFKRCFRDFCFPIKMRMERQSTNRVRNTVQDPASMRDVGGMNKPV

[4] = target: murine nociceptin opioid receptor, ssf-tagged, on HEK293 cells (Mus musculus (Mouse)., UniProt P35377); experiment: flow cytometry on cells
Chain of murine nociceptin opioid receptor, ssf-tagged, on HEK293 cells (P35377 whole entry): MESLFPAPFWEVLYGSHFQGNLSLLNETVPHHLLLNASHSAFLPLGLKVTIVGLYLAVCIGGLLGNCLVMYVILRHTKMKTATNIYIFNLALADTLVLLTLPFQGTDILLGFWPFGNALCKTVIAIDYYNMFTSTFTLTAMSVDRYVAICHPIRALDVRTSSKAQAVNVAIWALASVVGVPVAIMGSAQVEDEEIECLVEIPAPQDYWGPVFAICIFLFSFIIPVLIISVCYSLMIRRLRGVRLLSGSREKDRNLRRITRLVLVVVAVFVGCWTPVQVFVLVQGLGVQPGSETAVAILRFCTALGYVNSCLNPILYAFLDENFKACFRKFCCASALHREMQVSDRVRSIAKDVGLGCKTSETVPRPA

[5] = target: SNAP-tagged murine µOR on HEK293 cells (murine, UniProt P42866 1-398); experiment: AlphaScreen or HTRF
Chain of SNAP-tagged murine µOR on HEK293 cells (murine, UniProt P42866 1-398) (P42866 whole entry): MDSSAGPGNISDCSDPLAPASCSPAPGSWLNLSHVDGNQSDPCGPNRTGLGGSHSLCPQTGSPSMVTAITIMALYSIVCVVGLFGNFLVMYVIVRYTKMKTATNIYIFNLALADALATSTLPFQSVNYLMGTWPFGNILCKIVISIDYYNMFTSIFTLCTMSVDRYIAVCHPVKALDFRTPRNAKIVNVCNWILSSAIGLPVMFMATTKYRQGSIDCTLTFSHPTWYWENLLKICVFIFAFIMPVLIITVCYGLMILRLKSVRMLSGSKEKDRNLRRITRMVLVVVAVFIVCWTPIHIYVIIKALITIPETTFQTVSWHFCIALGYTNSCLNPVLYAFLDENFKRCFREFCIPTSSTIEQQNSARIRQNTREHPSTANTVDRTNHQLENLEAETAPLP

Chain of human μ-opioid receptor, ssf-tagged, on HEK293 cells (P35372 whole entry): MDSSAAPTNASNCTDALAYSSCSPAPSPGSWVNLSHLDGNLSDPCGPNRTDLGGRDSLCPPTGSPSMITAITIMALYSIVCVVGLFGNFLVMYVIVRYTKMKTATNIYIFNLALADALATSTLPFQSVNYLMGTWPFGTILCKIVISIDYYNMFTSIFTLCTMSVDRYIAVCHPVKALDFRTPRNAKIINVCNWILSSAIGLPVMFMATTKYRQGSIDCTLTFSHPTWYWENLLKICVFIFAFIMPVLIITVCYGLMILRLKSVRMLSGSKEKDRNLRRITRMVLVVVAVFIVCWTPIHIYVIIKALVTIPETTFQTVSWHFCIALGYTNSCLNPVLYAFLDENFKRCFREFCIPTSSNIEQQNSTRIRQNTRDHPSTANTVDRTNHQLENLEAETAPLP
Chain of SNAP-tagged murine µOR on HEK293 cells (murine, UniProt P42866, SNAP-Lumi4-Tb (terbium cryptate) on the SNAP tag) (P42866 whole entry): as the sequence (P42866 whole entry) above

B1: NbE (NbE-6xHis, unlabeled) (VHH)
VHH: QVQLVESGGGLVQAGGSLRLSCAASGSISSISTMGWYRQAPGNERELVAAITSGGSTNYADSVKGRFTISRDNAKNTVYLQMNSLKPEDTAVYYCNFKYYSGSYFYKSEYDYWGQGTQVTVSS
[1]
  Ki: 18 nM

B2: HA-tagged NbE (VHH)
VHH: B1 VHH
[2]
  binding result: binds

B3: NbE conjugated with Alexa Fluor 488 (VHH)
VHH: B1 VHH
[3]
  binding result: no binding (tested: 10 μM)
[4]
  binding result: no binding (tested: 10 μM)

## Ac-YYSGSYFYKSEY-NH2 [linear peptide 5 (NbE CDR3, 12 residues)]
[5]
  Ki: 1300 nM

## KYYSGSYFYKSEYD [linear peptide 6 (NbE CDR3 residues 100-113, 14 residues)]
[5]
  Ki: 3100 nM
